These results are taken from paper PMC3084784 (PLoS ONE, 2011).

Assay [1] concerns the target HLA-A*0201 (heavy chain, β2m and peptide …) (human |  | human SARS-CoV). Briefly: SPR. The conditions noted are these: both partners purified.
Assay [2] addresses T1, HLA-G1 (heavy chain, β2m and peptide …) (human | , UniProt P17693-1 25-300; P61769 21-119).
T1 construct: HLA-G1 heavy chain, recombinant; β2-microglobulin (β2m), from inclusion bodies; also called non-classical HLAI; copies: + +
The assay is described as follows: SPR; BIAcore 3000; HLA-A*0201 (700 RU) or HLA-G1 (300 RU) immobilised by amine coupling on CM5 at pH 5.0, BSA as control surface; LILR injected; 25°C; 10 mM HEPES pH 7.4, 150 mM NaCl, 3 mM EDTA, 0.005% Tween-20; Kd by Scatchard analysis or nonlinear fit of a Langmuir isotherm. The conditions noted are these: both partners purified. A general note: SPR reads the build-up and loss of mass on a sensor chip optically.

B1: LILRA3 D1D2 (domain 1 and domain 2, residues 1-197) (domain or fragment)
chain: GPLPKPTLWAEPGSVITQGSPVTLRCQGSLETQEYHLYREKKTALWITRIPQELVKKGQFPILSITWEHAGRYCCIYGSHTVGLSESSDPLELVVTGAYSKPTLSALPSPVVTSGGNVTIQCDSQVAFDGFILCKEGEDEHPQCLNSHSHARGSSRAIFSVGPVSPSRRWSYRCYGYDSRAPYVWSLPSDLLGLLVP
For orientation: Kd means the equilibrium constant for the complex coming apart. A higher Kd goes with weaker binding. B1 had a Kd in assay [1] of 28.5 µM. This lies in the double-digit micromolar range.

B2: LILRB2 D1D2 (domain or fragment, human)
chain: GTIPKPTLWAEPDSVITQGSPVTLSCQGSLEAQEYRLYREKKSASWITRIRPELVKNGQFHIPSITWEHTGRYGCQYYSRARWSELSDPLVLVMTGAYPKPTLSAQPSPVVTSGGRVTLQCESQVAFGGFILCKEGEDEHPQCLNSQPHARGSSRAIFSVGPVSPNRRWSHRCYGYDLNSPYVWSSPSDLLELLVPG
notes: LILRB2 (ILT4), domains 1 and 2 (D1D2); also called LILRB2 D1D2 monomer; ILT4 D1D2
On to B2, for which the Kd worked out at 5.62 µM in assay [2] and 9.74 µM in assay [1].

B3: LILRA3 D1 (domain 1, residues 1-97) (domain or fragment)
chain: GPLPKPTLWAEPGSVITQGSPVTLRCQGSLETQEYHLYREKKTALWITRIPQELVKKGQFPILSITWEHAGRYCCIYGSHTVGLSESSDPLELVVTG
In assay [1], B3 displayed a Kd of 40.1 µM.
